Source: PMC7329908, “Glucocorticoid receptor complexes form cooperatively with the Hsp90 co-chaperones Pp5 and FKBPs” (Scientific Reports, 2020)
Blank lines part the entries; values can stand above or below the binder they belong to.

Legend:
Details in all cases: both partners purified
human Hsp90β [1] = target: T1, human Hsp90β (human, UniProt P08238 1-724); experiment: AUC; sedimentation velocity with fluorescence detection; 600 nM ATTO 488-labelled GRLBDm, 3 μM unlabelled chaperones and cofactors, 2 mM ATPγS; 20 mM HEPES, 20 mM KCl, 5 mM MgCl2, 50 μM dexamethasone, pH 7.5; 42,000 rpm, 20 °C
T1 construct: Hsp90β, human; source: E. coli BL21 (DE3), purified (HisTrap, Resource Q, Superdex size exclusion)

human Hsp90β [2] = target: T1, human Hsp90β; experiment: AUC; sedimentation velocity with fluorescence detection; 600 nM ATTO 488-labelled GRLBDm, 3 μM unlabelled chaperones and cofactors, no nucleotide; 20 mM HEPES, 20 mM KCl, 5 mM MgCl2, 50 μM dexamethasone, pH 7.5; 42,000 rpm, 20 °C
[3] = target: T2, C. elegans Hsp90 (HSP-90) (C. elegans, UniProt Q18688 1-702); experiment: AUC; sedimentation velocity with fluorescence detection; 600 nM ATTO 488-labelled GRLBDm, 3 μM unlabelled chaperones and cofactors, 2 mM ATPγS; 20 mM HEPES, 20 mM KCl, 5 mM MgCl2, 50 μM dexamethasone, pH 7.5; 42,000 rpm, 20 °C
T2 construct: HSP-90 (Hsp90 homolog), C. elegans; also called nematode HSP-90; nematode Hsp90; source: E. coli BL21 (DE3), purified (HisTrap, Resource Q, Superdex size exclusion)

[4] = target: T2, C. elegans Hsp90 (HSP-90); experiment: AUC; sedimentation velocity with fluorescence detection; 600 nM ATTO 488-labelled GRLBDm, 3 μM unlabelled chaperones and cofactors, no nucleotide; 20 mM HEPES, 20 mM KCl, 5 mM MgCl2, 50 μM dexamethasone, pH 7.5; 42,000 rpm, 20 °C

T1 sequence (P08238 whole entry): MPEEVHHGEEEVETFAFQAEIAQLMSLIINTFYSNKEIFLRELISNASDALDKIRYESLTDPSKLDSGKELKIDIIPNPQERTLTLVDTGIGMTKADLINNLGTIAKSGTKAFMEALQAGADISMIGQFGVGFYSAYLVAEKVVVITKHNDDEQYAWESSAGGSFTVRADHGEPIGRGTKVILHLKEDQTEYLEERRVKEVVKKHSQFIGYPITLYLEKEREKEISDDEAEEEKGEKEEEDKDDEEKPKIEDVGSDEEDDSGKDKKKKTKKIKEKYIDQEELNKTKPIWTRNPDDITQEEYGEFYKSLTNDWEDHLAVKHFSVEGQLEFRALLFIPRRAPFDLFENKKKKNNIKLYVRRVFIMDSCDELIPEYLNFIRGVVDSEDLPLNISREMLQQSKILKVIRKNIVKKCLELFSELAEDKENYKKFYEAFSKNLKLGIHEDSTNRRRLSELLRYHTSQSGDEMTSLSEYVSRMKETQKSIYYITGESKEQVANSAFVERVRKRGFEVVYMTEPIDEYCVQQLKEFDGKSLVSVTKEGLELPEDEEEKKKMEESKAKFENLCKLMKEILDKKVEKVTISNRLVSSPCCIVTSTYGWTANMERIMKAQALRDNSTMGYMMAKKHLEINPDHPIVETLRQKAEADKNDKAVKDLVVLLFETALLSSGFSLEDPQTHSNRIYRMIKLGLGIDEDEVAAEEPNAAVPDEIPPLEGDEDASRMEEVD

B1: human p23 (natural protein, UniProt Q15185 1-160, looked up)
chain: MQPASAKWYDRRDYVFIEFCVEDSKDVNVNFEKSKLTFSCLGGSDNFKHLNEIDLFHCIDPNDSKHKRTDRSILCCLRKGESGQSWPRLTKERAKLNWLSVDFNNWKDWEDDSDEDMSNFDRFSEMMNNMGGDEDVDLPEVDGADDDSQDSDDEKMPDLE
notes: p23 co-chaperone, human; source: E. coli BL21 (DE3), purified (HisTrap, Resource Q, Superdex size exclusion)
- binding result (human Hsp90β [1]): binds

B3: human Fkbp51 (enzyme, UniProt Q13451 1-457, looked up)
chain: MTTDEGAKNNEESPTATVAEQGEDITSKKDRGVLKIVKRVGNGEETPMIGDKVYVHYKGKLSNGKKFDSSHDRNEPFVFSLGKGQVIKAWDIGVATMKKGEICHLLCKPEYAYGSAGSLPKIPSNATLFFEIELLDFKGEDLFEDGGIIRRTKRKGEGYSNPNEGATVEIHLEGRCGGRMFDCRDVAFTVGEGEDHDIPIGIDKALEKMQREEQCILYLGPRYGFGEAGKPKFGIEPNAELIYEVTLKSFEKAKESWEMDTKEKLEQAAIVKEKGTVYFKGGKYMQAVIQYGKIVSWLEMEYGLSEKESKASESFLLAAFLNLAMCYLKLREYTKAVECCDKALGLDSANEKGLYRRGEAQLLMNEFESAKGDFEKVLEVNPQNKAARLQISMCQKKAKEHNERDRRIYANMFKKFAEQDAKEEANKAMGKKTSEGVTNEKGTDSQAMEEEKPEGHV
notes: Fkbp51, human PPIase; source: E. coli BL21 (DE3), purified (HisTrap, Resource Q, Superdex size exclusion)
- binding result (human Hsp90β [2]): binds

B5: human Fkbp52 (enzyme, UniProt Q02790 1-459, looked up)
chain: MTAEEMKATESGAQSAPLPMEGVDISPKQDEGVLKVIKREGTGTEMPMIGDRVFVHYTGWLLDGTKFDSSLDRKDKFSFDLGKGEVIKAWDIAIATMKVGEVCHITCKPEYAYGSAGSPPKIPPNATLVFEVELFEFKGEDLTEEEDGGIIRRIQTRGEGYAKPNEGAIVEVALEGYYKDKLFDQRELRFEIGEGENLDLPYGLERAIQRMEKGEHSIVYLKPSYAFGSVGKEKFQIPPNAELKYELHLKSFEKAKESWEMNSEEKLEQSTIVKERGTVYFKEGKYKQALLQYKKIVSWLEYESSFSNEEAQKAQALRLASHLNLAMCHLKLQAFSAAIESCNKALELDSNNEKGLFRRGEAHLAVNDFELARADFQKVLQLYPNNKAAKTQLAVCQQRIRRQLAREKKLYANMFERLAEEENKAKAEASSGDHPTDTEMKEEQKSNTAGSQSQVETEA
notes: Fkbp52, human PPIase; source: E. coli BL21 (DE3), purified (HisTrap, Resource Q, Superdex size exclusion)
- binding result (human Hsp90β [2]): binds

B6: STI-1, nematode TPR cofactor of HSP-90 (homolog of human Hop) (natural protein, C. elegans, UniProt O16259 1-320, looked up)
chain: MTDAAIAEKDLGNAAYKQKDFEKAHVHYDKAIELDPSNITFYNNKAAVYFEEKKFAECVQFCEKAVEVGRETRADYKLIAKAMSRAGNAFQKQNDLSLAVQWFHRSLSEFRDPELVKKVKELEKQLKAAERLAYINPELAQEEKNKGNEYFKKGDYPTAMRHYNEAVKRDPENAILYSNRAACLTKLMEFQRALDDCDTCIRLDSKFIKGYIRKAACLVAMREWSKAQRAYEDALQVDPSNEEAREGVRNCLRSNDEDPEKAKERSLADPEVQEILRDPGMRMILEQMSNDPGAVREHLKNPEIFQKLMKLRDAGVIQMR
notes: STI-1, C. elegans; source: E. coli BL21 (DE3), purified (HisTrap, Resource Q, Superdex size exclusion)
- binding result [4]: binds

Next, values leading:

- binding result (human Hsp90β [2]): binds
B2: human protein phosphatase Pp5 (enzyme, UniProt P53041 1-499, looked up)
chain: MAMAEGERTECAEPPRDEPPADGALKRAEELKTQANDYFKAKDYENAIKFYSQAIELNPSNAIYYGNRSLAYLRTECYGYALGDATRAIELDKKYIKGYYRRAASNMALGKFRAALRDYETVVKVKPHDKDAKMKYQECNKIVKQKAFERAIAGDEHKRSVVDSLDIESMTIEDEYSGPKLEDGKVTISFMKELMQWYKDQKKLHRKCAYQILVQVKEVLSKLSTLVETTLKETEKITVCGDTHGQFYDLLNIFELNGLPSETNPYIFNGDFVDRGSFSVEVILTLFGFKLLYPDHFHLLRGNHETDNMNQIYGFEGEVKAKYTAQMYELFSEVFEWLPLAQCINGKVLIMHGGLFSEDGVTLDDIRKIERNRQPPDSGPMCDLLWSDPQPQNGRSISKRGVSCQFGPDVTKAFLEENNLDYIIRSHEVKAEGYEVAHGGRCVTVFSAPNYCDQMGNKASYIHLQGSDLRPQFHQFTAVPHPNVKPMAYANTLLQLGMM
notes: Pp5 (serine/threonine protein phosphatase 5), human; source: E. coli BL21 (DE3), purified (HisTrap, Resource Q, Superdex size exclusion)

- binding result [3]: binds
B4: PPH-5, nematode protein phosphatase, homolog of human Pp5 (enzyme, C. elegans, UniProt Q9NES8 1-496, looked up)
chain: MAATITDDIVATVLESIEEKSYEDEKEKAGMIKDEANQFFKDQVYDVAADLYSVAIEIHPTAVLYGNRAQAYLKKELYGSALEDADNAIAIDPSYVKGFYRRATANMALGRFKKALTDYQAVVKVCPNDKDARAKFDECSKIVRRQKFEAAISTDHDKKTVAETLDINAMAIEDSYDGPRLEDKITKEFVLQLIKTFKNQQKLHKKYAFKMLLEFYNYVKSLPTMVEITVPTGKKFTICGDVHGQFYDLCNIFEINGYPSETNPYLFNGDFVDRGSFSVETIFTMIGFKLLYPNHFFMSRGNHESDVMNKMYGFEGEVKAKYTQQMCDMFTETFCWLPLCHLINEKIFVCHGGLFKEDGVTLEDIRKTDRNRQPPDEGIMCDLLWSDPQPINGRSPSKRGVGCQFGPDVTSKWCETNGIEYVVRSHEVKPEGYEMHHNGQCFTVFSAPNYCDQMNNKGAFITITGDNLTPRFTPFDAVPHPKLPPMAYANSLFGFN
notes: PPH-5, TPR-containing serine/threonine phosphatase, C. elegans; source: E. coli BL21 (DE3), purified (HisTrap, Resource Q, Superdex size exclusion)

- binding result [3]: binds
B7: FKB-6, nematode large prolyl isomerase (FK1, FK2 and TPR domains) (enzyme, C. elegans, UniProt O45418 1-431, looked up)
chain: MSGEKIDITPKKDGGVLKLIKKEGQGVVKPTTGTTVKVHYVGTLENGTKFDSSRDRGDQFSFNLGRGNVIKGWDLGVATMTKGEVAEFTIRSDYGYGDAGSPPKIPGGATLIFEVELFEWSAEDISPDRDGTILRTIIVEGSKNSFPNDTSKVLAHCVGTYQGTEFYNREVNFHIGEGSEEGLPEGVERALRRFQLGEKSKIEIRGHKYTYGNSPPAGSNIPVNATLEFTIFLKEFEKVPATWEMTAEEKLDAAKQAKDRGTMYLQKGNLKLAYNKYKRAEEVLEYEKSTDPEKMAERETILNGAYLNLSLVCSKQNEQLECIKWCDKVLETKPGNVKALYRKATALLTMNEVRDAMKLFEKIVEVEPENKAAAQQIIVCRNTIREQNERDKKRFKNLFAKISTEEDKPTNTVEDEDEIVASTSGSSTSNA
notes: FKB-6, peptidyl prolyl isomerase with FK1, FK2 and C-terminal TPR region, C. elegans; source: E. coli BL21 (DE3), purified (HisTrap, Resource Q, Superdex size exclusion)
